The record followed here is patent US20060093553A1, “Cd26-based therapies for cancers and immune disease” (priority 2002, published 2006).

Holding throughout (assay type): cell-based, Human
The test system of assay [1] is PBMC. The assay is described as follows: TT-induced proliferation of PBMC, time-course ([3H]TdR incorporation). Particulars: DPPIV-deficient mutant sCD26 in PBMC time-course. The text has this: Human PBMC, collected from healthy adult volunteers who were immunized with TT within two years before donation, were isolated by centrifugation on Ficoll/Paque (Amersham Pharmacia Biotech, Piscataway, N.J.). PBMC were directly used for the time-course studies. For the reconstitution studies, PBMC were further purified into T cell fractions and APC fractions. To obtain a highly purified T cell population, PBMC were separated into an E rosette-positive (E^+) population and were used as resting T cells as determined by flow cytometric analysis (FACSCalibur; Nippon BD Biosciences, Tokyo, Japan) using an FITC-labeled anti-CD3 mAb (BD PharMingen, San Diego, Calif.) with purity being >95%. To obtain APC, an E rosette-negative (E^−) population was adhered to plastic plates for 4 h at 37° C., and adherent cells were used as APC. Monocytes were either purified by a flow cytometer on the basis of PE-labeled anti-CD14 mAb (BD PharMingen)-oriented parameter, or by negative selection through the use of immunomagnetic beads coated with an anti-CD3, CD7, CD19, CD45RA, CD56, and IgE mAb Qailtenyi Biotec, Auburn, Calif.) with purity being >95%. […]
T-cell proliferation induced by APC was measured by [^3H]TdR (ICN Radiochemicals, Irvine, Calif.) uptake. […]

For assay [2], the system named is PBMC subpopulations (CD3, CD14, CD19, CD56). The assay is described as follows: sCD26-OG incorporation into PBMC subpopulations (flow cytometry). The conditions noted are these: 24 h, presence or absence of TT; FIG. 9. As to the method: Assessment of the PBMC population that takes up sCD26-OG was performed with PE-conjugated anti-CD3, anti-CD14, anti-CD19, and anti-CD56 mAbs (10 μg/ml). For these experiments, 1×10^6 PBMC/well were incubated in standard medium containing sCD26-OG for 24 h with or without preincubation with TT. Cells were then washed twice in ice-cold PBS, followed by incubation for 2 min in acidic PBS (pH 3.0) to strip any sCD26-OG attached to the cell surface. Cells were subsequently washed in ice-cold PBS and were incubated with mouse Ig isotypes (1 μg/ml) to block nonspecific binding; this was followed by reaction with PE-conjugated mabs.
(§1) Flow cytometric analysis of 10,000 viable cells was conducted on FACSCalibur (BD Biosciences, Mountain View, Calif.). Each experiment was repeated at least three times, and the results were provided in the form of a histogram of a representative experiment, or increased mean percent±SE fluorescent intensity compared with control or untreated cells.

In assay [3] the test system is monocytes. The assay is described as follows: Confocal laser microscopy of sCD26 uptake. As to the method:
For fluorescent microscopy studies of uptake of sCD26 by monocytes; purified monocytes were incubated with sCD26-OG (1 μg/ml) with or without preincubation with. TT (0.5 μg/ml). Cells were then washed in ice-cold PBS twice and were incubated in acidic PBS (pH 3.0) to strip any sCD26-OG attached to the cell surface. The cells were then attached to microslide glass (Matsunami Glass, Tokyo, Japan) and fixed with 3% paraformaldehyde in PBS for 15 min at room temperature. Cells were blocked with mouse Ig isotypes (1 μg/ml) for 30 min at 4° C., followed by incubation with biotinylated anti-CD14 (10 μg/ml) for 30 min at 4° C., then washed with ice-cold PBS twice and incubated with streptavidin-conjugated Texas red conjugate (1/200; Beckman Coulter) for 30 min at 4° C. In studies of sCD26 uptake via M6P/IGF-IIR on monocytes, purified monocytes were incubated with or without TT for 16 h, and sCD26-OG and M6P/IGF-IIR-red were added to the culture well after being blocked with mouse Ig isotypes (1 μg/ml) for 30 min at 4° C. Cells were then incubated for 30 min at 4° C. For detection of cell surface colocalization, cells were washed in ice-cold PBS twice and were attached to microslide glass, followed by fixation with 3% paraformaldehyde in PBS for 15 min at room temperature. […]

The test system of assay [4] is monocytes and purified T cells. The assay is described as follows: Reconstitution/fixation study: T cell proliferation with preincubated monocytes ([3H]TdR). The conditions noted are these: TT-pulsed monocytes fixed with 0.05% glutaraldehyde before or after sCD26; FIGS. 12A, 12B. On the procedure: All cells were preincubated in the standard medium for 24 h to minimize the risk of potential interference from sCD26 present in human serum (Tanaka et al., 1993). In these studies, cells were incubated in 96-well plates (200 μl/well; Falcon, Franklin Lakes, N.J.). For the time-course study, 1.0×10^5 PBMC were incubated with 0.5 μg/ml TT for 16 h. Then, 0.5 μg/ml sCD26 was added to the well and was incubated for 0, 6, 12, 24, 48, 72, and 96 h. The day when the first sCD26 was added to the culture well was defined as day 0 of culture. All assays in proliferation experiments were performed on day 7 of culture after cells were incubated at 37° C. in a 5% CO2 humidified atmosphere. For the reconstitution study, 0.5×10^6 of monocytes were preincubated with TT, at a concentration of 0.5 μg/ml with different concentrations of sCD26 for 24 h. Monocytes were washed with PBS, and then 1×10^4/well of preincubated monocytes were subjected to the assay with 1×10^5/well of purified T cells from the same donor as the prepared monocytes. […]
T-cell proliferation induced by APC was measured by [^3H]TdR (ICN Radiochemicals, Irvine, Calif.) uptake. Seven-day-incubated cells were pulsed with 1 μCi/well of [^3H]TdR 8 h before harvesting onto a glass-fiber filter (Wallac, Turk, Finland), and the incorporated radioactivity was quantified by a liquid scintillation counter (Wallac).

For assay [5], the system named is CD86 expression on monocytes. The assay is described as follows: Surface expression on monocytes (flow cytometry). Particulars: after TT and sCD26 stimulation; FIG. 13. On the procedure:
In studies assessing the expression of CD80, CD86, and HLA-DR on purified monocytes (0.5×10^6 monocytes/well), monocytes were preincubated with or without TT (0.5 μg/ml) for 16 h. Following incubation with sCD26 (0.5 μg/ml) for 24 h, FITC-conjugated CD80, CD86, and HLA-DR mAbs (10 μg/ml) were used with PE-conjugated anti-CD14 (10 μg/ml) to gate exclusively on the monocyte population. In experiments assessing the effect of M6P on cellular uptake of sCD26, purified monocytes (0.5×10^6 monocytes/well) were incubated with the appropriate concentration of M6P in the presence or absence of sCD26-OG for 24 h in standard medium. Cells were then washed twice in ice-cold PBS, followed by incubation for 2 min in acidic PBS (pH 3.0) to strip any sCD26-OG attached to the cell surface. Cells were washed in ice-cold PBS and were incubated with mouse Ig isotypes (1 μg/ml) to block nonspecific binding; this was followed by reaction with PE-conjugated anti-CD14 (10 μg/ml) to gate exclusively on monocyte population.
as §1
On the technique in general: Flow cytometry measures light scatter and fluorescence of single cells or particles in a stream.

Assay [6] deals with CD86 mRNA in monocytes. The assay is described as follows: Relative quantitative RT-PCR assay. Particulars: monocytes with TT 16 h then sCD26 0.5 μg/ml 24 h.

B1: sCD26/DPPIV^−: mutant sCD26 without DPPIV activity, Ser630 replaced by Ala at the active site (protein)
chain: MKGLLGAAALVTIITVPVVLLNKGTDDATADSRKTYTLTDYLKNTYRLKLYSLRWISDHEYLYKQENNILVFNAEYGNSSVFLENSTFDEFGHSINDYSISPDGQFILLEYNYVKQWRHSYTASYDIYDLNKRQLITEERIPNNTQWVTWSPVGHKLAYVWNNDIYVKIEPNLPSYRITWTGKEDIIYNGITDWVYEEEVFSAYSALWWSPNGTFLAYAQFNDTEVPLIEYSFYSDESLQYPKTVRVPYPKAGAVNPTVKFFVVNTDSLSSVTNATSIQITAPASMLIGDHYLCDVTWATQERISLQWLRRIQNYSVMDICDYDESSGRWNCLVARQHIEMSTTGWVGRFRPSEPHFTLDGNSFYKIISNEEGYRHICYFQIDKKDCTFITKGTWEVIGIEALTSDYLYYISNEYKGMPGGRNLYKIQLSDYTKVTCLSCELNPERCQYYSVSFSKEAKYYQLRCSGPGLPLYTLHSSVNDKGLRVLEDNSALDKMLQNVQMPSKKLDFIILNETKFWYQMILPPHFDKSKKYPLLLDVYAGPCSQKADTVFRLNWATYLASTENIIVASFDGRGSGYQGDKIMHAINRRLGTFEVEDQIEAARQFSKMGFVDNKRIAIWGWAYGGYVTSMVLGSGSGVFKCGIAVAPVSRWEYYDSVYTERYMGLPTPEDNLDHYRNSTVMSRAENFKQVEYLLIHGTADDNVHFQQSAQISKALVDVGVDFQAMWYTDEDHGIASSTAHQHIYTHMSHFIKQCFSLP
On to B1, for which the “enhancing effect of TT-induced T cell proliferation” value in assay [1] is listed as “not observed”. Besides, in assay [2], the “PBMC population that takes up sCD26” value is reported as “preferentially taken up by CD14-positive monocytes”. Besides, in assay [3] (36 h after incubation of monocytes with sCD26), the “intracellular detection of sCD26 in monocytes” value was “no longer detectable intracellularly”. Also, the “uptake by monocytes (confocal microscopy)” value in assay [3] (sCD26-OG 1 μg/ml) was “clearly taken up by monocytes”. Besides, in assay [4], the “enhanced T cell proliferation, fixation study” value is listed as “seen only when the monocytes were incubated with sCD26/DPPIV^+ before fixation”. Moreover, the “CD86 expression on monocytes” value in assay [5] is recorded as “did not affect CD86 expression”. Moreover, the entries for the “CD86 mRNA levels (RT-PCR)” value in assay [6] and in assay [6] (listed as sCD26/DPPIV^+) were “did not demonstrate enhanced CD86 mRNA levels” and “increased mRNA levels”, respectively.
